Data: patent US12065483

Columns and labels:
[1] = target: Influenza Hemagglutinin B (influenza B virus); assay: ELISA on Influenza Hemagglutinin B (1 ug/mL); 293 supernatant diluted 1:10000
[2] = target: Influenza Hemagglutinin A (influenza A virus); assay: ELISA on Influenza Hemagglutinin A (1 ug/mL); 293 supernatant diluted 1:10
[3] = target: Influenza Hemagglutinin B (influenza B virus); assay: ELISA on Influenza Hemagglutinin B (1 ug/mL); 293 supernatant diluted 1:1000
[4] = target: Influenza Hemagglutinin A (influenza A virus); assay: ELISA on Influenza Hemagglutinin A (1 ug/mL); 293 supernatant diluted 1:1000
[5] = target: Influenza Hemagglutinin B (influenza B virus); assay: ELISA on Influenza Hemagglutinin B (1 ug/mL); 293 supernatant diluted 1:10
[6] = target: Influenza Hemagglutinin B (influenza B virus); assay: ELISA on Influenza Hemagglutinin B (1 ug/mL); 293 supernatant diluted 1:100
[7] = target: Influenza Hemagglutinin A (influenza A virus); assay: ELISA on Influenza Hemagglutinin A (1 ug/mL); 293 supernatant diluted 1:100
[8] = target: Influenza Hemagglutinin A (influenza A virus); assay: ELISA on Influenza Hemagglutinin A (1 ug/mL); 293 supernatant diluted 1:10000

Row | Binder | ELISA signal [1] | ELISA signal [2] | ELISA signal [3] | ELISA signal [4] | ELISA signal [5] | ELISA signal [6] | ELISA signal [7] | ELISA signal [8]
1 | F2-20 (VHH) VHH: QVQLVESGGGLVQAGGSLRLSCAASGRTFSRYAMGWFRQAPGKEREFVARISWSGDITYYADSVKGRFTISRDNAKNTVYLQMNSLKPEDTAVYYCAADAILRTRPPYESDYWGQGTQVTVSS | 0.805 | 0.884 | 1.2 | 0.442 | 1.58 | 1.52 | 0.629 | 0.269
2 | F2-02 (VHH) VHH: QVQLVESGGGLVQAGGSLRLSCAASGRTFRSFAMGWFRQAPGKEREFVATISWWSNNTYYADSVKGRFTISRDIAKNTVYLQMNSLKPEDTAVYYCAADLGPWLTAGQYDYWGQGTQVTVSS | 0.266 | 1.21 | 0.61 | 0.73 | 0.826 | 0.863 | 1.09 | 0.405
3 | F1-04 (VHH) VHH: QVQLVESGGGLVQVGGSLRLSCAASERPSSNYAMGWFRQAPGKEQEFVAAIYWSGGGTAYGDSVKGRFTISKDNAKNTVYLQMNDLKPEDTGMYYCTTDHYGSWSYEYGSWGQGTQVTVSS | 0.205 | 1.76 | 0.738 | 0.366 | 1.47 | 1.63 | 2 | 0.058
4 | F2-24 (VHH) VHH: QVQLVESGGGLVQAGGSLRLSCASSGHTFNSYVMGWFRQAPGKEREFVAAIRPSGVSTYYADSVKGRFTISRDNAKNTVSLEMNSLKPEDTAVYYCAGDRDHSMMAVRRLSSYRQWGRGTQVTVSS | 1.45 | 0.444 | 1.63 | 0.279 | 1.69 | 1.85 | 0.427 | 0.15
